Assay results published in article PMC5078997, “Diversity-oriented synthetic strategy for developing a chemical modulator of protein–protein interaction” (Nature Communications, 2016).

Target: T1, His-tagged human leucyl-tRNA synthetase (LRS) (human, UniProt Q9P2J5 1-1176)
T1 construct: leucyl-tRNA synthetase (LRS), human; also called His-LRS; human LRS; source: laboratory stocks; purified
Assay: ELISA; His-tagged human LRS coated on the plate (0.5 ng/ul in 100 mM carbonate buffer, pH 9.6, overnight at 4 °C), blocked with 5% BSA in PBS; GST-tagged human RagD added together with each compound for 3 h; detected with anti-GST and HRP-conjugated secondary antibody, TMB, absorbance at 450 nm
Conditions: both partners purified

T1 sequence (Q9P2J5 whole entry): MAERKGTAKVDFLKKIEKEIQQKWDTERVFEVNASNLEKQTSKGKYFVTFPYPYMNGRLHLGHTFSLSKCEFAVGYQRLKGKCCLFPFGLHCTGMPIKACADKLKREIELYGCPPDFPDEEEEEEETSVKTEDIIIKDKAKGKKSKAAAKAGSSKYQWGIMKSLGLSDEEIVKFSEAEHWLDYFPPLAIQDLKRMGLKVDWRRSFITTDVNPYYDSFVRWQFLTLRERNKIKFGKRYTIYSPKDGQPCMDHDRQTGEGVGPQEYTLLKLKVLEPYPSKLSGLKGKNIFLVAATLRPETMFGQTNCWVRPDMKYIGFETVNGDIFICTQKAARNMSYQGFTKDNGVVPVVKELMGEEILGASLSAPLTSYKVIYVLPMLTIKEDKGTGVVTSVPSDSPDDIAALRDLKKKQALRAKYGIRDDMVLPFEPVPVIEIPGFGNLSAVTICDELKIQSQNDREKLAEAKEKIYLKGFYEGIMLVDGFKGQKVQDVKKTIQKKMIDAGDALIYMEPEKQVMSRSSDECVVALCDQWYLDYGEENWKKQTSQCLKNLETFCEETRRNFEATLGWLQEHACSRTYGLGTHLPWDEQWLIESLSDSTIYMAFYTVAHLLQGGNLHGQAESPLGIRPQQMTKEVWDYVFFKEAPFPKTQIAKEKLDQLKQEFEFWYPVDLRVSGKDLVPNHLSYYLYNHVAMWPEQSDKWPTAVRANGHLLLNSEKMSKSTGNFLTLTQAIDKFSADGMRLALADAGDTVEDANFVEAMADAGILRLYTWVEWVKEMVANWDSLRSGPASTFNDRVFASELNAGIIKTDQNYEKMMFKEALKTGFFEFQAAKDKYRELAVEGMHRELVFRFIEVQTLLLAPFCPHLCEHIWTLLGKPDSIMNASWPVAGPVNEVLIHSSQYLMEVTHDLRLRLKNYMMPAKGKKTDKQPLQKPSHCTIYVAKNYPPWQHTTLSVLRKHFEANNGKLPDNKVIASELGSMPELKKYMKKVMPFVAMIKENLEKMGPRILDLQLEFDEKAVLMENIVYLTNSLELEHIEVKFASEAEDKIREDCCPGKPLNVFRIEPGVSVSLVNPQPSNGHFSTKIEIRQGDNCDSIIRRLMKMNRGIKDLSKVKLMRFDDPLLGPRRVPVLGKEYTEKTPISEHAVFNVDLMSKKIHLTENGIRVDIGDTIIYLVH

B1: GST (glutathione-S-transferase)-tagged human Ras-related GTP-binding protein D (RagD) (natural protein, UniProt Q9NQL2 1-400, looked up)
chain: MSQVLGKPQPQDEDDAEEEEEEDELVGLADYGDGPDSSDADPDSGTEEGVLDFSDPFSTEVKPRILLMGLRRSGKSSIQKVVFHKMSPNETLFLESTNKICREDVSNSSFVNFQIWDFPGQIDFFDPTFDYEMIFRGTGALIFVIDSQDDYMEALARLHLTVTRAYKVNTDINFEVFIHKVDGLSDDHKIETQRDIHQRANDDLADAGLEKIHLSFYLTSIYDHSIFEAFSKVVQKLIPQLPTLENLLNIFISNSGIEKAFLFDVVSKIYIATDSTPVDMQTYELCCDMIDVVIDISCIYGLKEDGAGTPYDKESTAIIKLNNTTVLYLKEVTKFLALVCFVREESFERKGLIDYNFHCFRKAIHEVFEVRMKVVKSRKVQNRLQKKKRATPNGTPRVLL
notes: also called GST-tagged RagD; source: laboratory stocks; purified
B1: binds.
